According to patent US20260263521A1, “ANTI-CD200R1 ANTIBODY AND USE THEREOF” (AIMED BIO INC., priority 2023, published 2026):
Changes are numbered by the printed parent chain.

B1: P001009: phage display anti-CD200R1 clone; VH SEQ ID NO: 79, VL SEQ ID NO: 94 (antibody, V domains shown)
VH: EVQLLESGGGLVQPGGSLRLSCAASGFTFSSYDMSWVRQAPGKGLEWVSWISHGGGSIYYADSVKGRFTISRDNSKNTLYLQMNSLRAEDTAVYYCARDAPAYSAPLFDYWGQGTLVTVSS
VL: QSVLTQPPSASGTPGQRVTISCSGSSSNIGNNAVNWYQQLPGTAPKLLIYYDSNRPSGVPDRFSGSKSGTSASLAISGLRSEDEADYYCAAWDDSLSGYVFGGGTKLTVL
B2: P001009v1: P001009 variant, LC S52 and LC S94 substituted with K and R; VH SEQ ID NO: 79 (antibody, V domains shown)
VH: B1 VH
VL: B1 VL with S53K, S95R

Assays:
[1] = test system: TNF-α in U937-CD200R1 cells; assay: TNF-α suppression in LPS-treated U937-CD200R1 cells (AlphaLISA); format: cell-based, human; details: for TNF-α: LPS-treated U937-CD200R1 cells, 24 h
Method: (§1) To determine the binding ability of the candidates to U937-CD200R1-overexpressing cell lines and verify the efficacy thereof, the anti-inflammatory effect of anti-CD200R1 antibodies was analyzed. First, 5×10^6 U937-CD200R1 cells were added to 12 ml of medium, treated with 30 ng/ml of Phorbol 12-myristate 13-acetate (Sigma Aldrich, #P1585), and reacted at 37° C. in 5% CO2 for 24 hours. After reaction, the medium was replaced with RPMI 1640 medium containing only 10% heat-inactivated FBS, and 5×10^6 cells were maintained at 37° C. in 5% CO2 for 24 hours.
(§2) Cells were seeded on duplicate onto 96-well round-bottom plates (SPL, #34296) at 1×10^5 cells/50 μl/well. P001009 WT, P001009v1, and the previously published CD200R antibody LY3454738 (US 2020/0087395, I-4P, Eli Lilly) as a positive control were used in this experiment. The drug was serially diluted 10-fold from a maximum concentration of 100 nM and treated to the cells at concentrations of 10 nM, 1 nM, […], respectively. Additional cells were treated with 100 nM of hIgG4 kappa isotype control (Crownvivo, #C0004) as a negative control. Untreated cells were seeded in the same amount of medium (RPMI 1640 containing 10% heat-inactivated FBS) and incubated at 37° C., 5% CO2 for 1 hour. To induce an inflammatory response in drug-treated cells, each well was treated with 10 μl of lipopolysaccharide from Salmonella typhosa (Sigma Aldrich, #L7895) at a concentration of 1 μg/ml. One well was left untreated to assess the induction of inflammatory cytokines. After thorough mixing, the cells were incubated at 37° C. and 5% CO2 for 24 hours.
(§3) After centrifugation at 1100 g for 2 minutes, images of the pellets before and after LPS treatment were captured using a microscope (Carl Zeiss, AXIO VERT.A1). After LPS treatment, the pellet appeared as scattered debris (FIG. 18B) rather than uniform spheroids (FIG. 18A). This was observed under a microscope. The supernatant was collected and analyzed for inflammatory cytokines such as TNF-α and IL-6 using an EnVision® multimode plate reader (PerkinElmer). A bead-based cytokine assay was performed using the AlphaLISA immunoassay on the EnVision® instrument. TNF-α(human) AlphaLISA Detection Kit, 500 assay points (PerkinElmer, #AL208C) was used for TNF-α, and the IL-6 (human) AlphaLISA Detection Kit, 500 assay points (PerkinElmer, #AL223C) was used for IL-6. Cytokine levels were determined depending on the concentration of each antibody.

[2] = test system: IL-6 in U937-CD200R1 cells; assay: IL-6 suppression in LPS-treated U937-CD200R1 cells (AlphaLISA); format: cell-based, human; details: for IL-6: LPS-treated U937-CD200R1 cells, 24 h
Method: as §1, §2, §3

[3] = low nanomolar (nM) drug concentrations

Molecule	TNF-α ([1]; log [Ab] (M) −7) [pg/mL]	TNF-α ([1]; log [Ab] (M) −8) [pg/mL]	TNF-α ([1]; log [Ab] (M) −9) [pg/mL]	TNF-α ([1]; log [Ab] (M) −10) [pg/mL]	TNF-α ([1]; log [Ab] (M) −11) [pg/mL]	TNF-α ([1]; log [Ab] (M) −12) [pg/mL]	IL-6 ([2]; log [Ab] (M) −7) [pg/mL]	IL-6 ([2]; log [Ab] (M) −8) [pg/mL]	IL-6 ([2]; log [Ab] (M) −9) [pg/mL]	IL-6 ([2]; log [Ab] (M) −10) [pg/mL]	IL-6 ([2]; log [Ab] (M) −11) [pg/mL]	IL-6 ([2]; log [Ab] (M) −12) [pg/mL]	TNF-α level [1, 3]	IL-6 level [2, 3]
B1	619.6 ± 12.3	1259.1 ± 29.9	2035.8 ± 108.9	4148.8 ± 208.7	5038.4 ± 7.7	5128.6 ± 667.6	231.7 ± 24.1	401.5 ± 9.6	1245.6 ± 49.9	3398.1 ± 325.5	3751.0 ± 144.5	4512.7 ± 74.1		
B2	146.7 ± 23.8	609.5 ± 25.6	1039.8 ± 54.7	3352.5 ± 189.8	4753.2 ± 96.1	4082.1 ± 964.6	153.7 ± 8.8	165.1 ± 8.4	454.2 ± 45	2439 ± 56.8	3517.7 ± 166.3	4730.2 ± 99.8	maintained low inflammatory cytokine levels	maintained low inflammatory cytokine levels
